What was measured:
[1] = biological target: His-tagged YvmB protein (MarR-like regulator YvmB, renamed PchR) (B. subtilis); assay: SEC; purified YvmB^His-tag fractionated on a Superdex 200 gel-filtration column; major peak with an apparent molecular mass compared with the 19.2 kDa polypeptide; no effector added
[2] = biological target: T1, YvmB-His6 (PchR) (Bacillus subtilis (BSB1, trp+ 168 derivative?)) (UniProt P40762); assay: EMSA; details: apparent Kd; EMSA: 1x = 20 mM Tris pH 8, 100 mM KCl, 0.5 mM DTT, 5 mM MgCl2, 0.05 mg/ml BSA, 0.05 mg/ml poly(dIdC) (from 5x buffer); 50 ng Cy5 DNA in 20 uL; 20 min at 30 C …
T1 sequence: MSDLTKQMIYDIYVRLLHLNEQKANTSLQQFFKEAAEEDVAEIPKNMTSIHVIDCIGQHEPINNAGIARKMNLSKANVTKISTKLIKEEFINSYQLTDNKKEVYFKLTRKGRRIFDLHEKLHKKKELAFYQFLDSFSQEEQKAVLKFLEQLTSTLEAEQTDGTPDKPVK

YvmB-His6 (PchR) [3] = biological target: T2, YvmB-His6 (PchR) (Bacillus subtilis (BSB1, trp+ 168 …, UniProt P40762 1-169)); assay: EMSA; one complex; apparent Kd; EMSA: 1x = 20 mM Tris pH 8, 100 mM KCl, 0.5 mM DTT, 5 mM MgCl2, 0.05 mg/ml BSA, 0.05 mg/ml poly(dIdC) (from 5x buffer); 50 ng Cy5 DNA in 20 uL; 20 min at 30 C; details: protein: recombinant; tags: C-terminal His6; chain copies: 2; label: 5' Cy5
T2 sequence: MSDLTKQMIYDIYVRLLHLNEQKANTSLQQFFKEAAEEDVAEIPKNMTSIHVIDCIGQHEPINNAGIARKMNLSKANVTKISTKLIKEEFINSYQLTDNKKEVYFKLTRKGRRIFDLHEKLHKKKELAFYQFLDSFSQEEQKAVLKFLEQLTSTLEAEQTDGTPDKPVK

YvmB-His6 (PchR) [4] = biological target: T2, YvmB-His6 (PchR); assay: EMSA; two complexes; EMSA: 1x = 20 mM Tris pH 8, 100 mM KCl, 0.5 mM DTT, 5 mM MgCl2, 0.05 mg/ml BSA, 0.05 mg/ml poly(dIdC) (from 5x buffer); 50 ng Cy5 DNA in 20 uL; 20 min at 30 C; details: protein: recombinant; tags: C-terminal His6; chain copies: 2; label: 5' Cy5

Molecule: His-tagged YvmB protein (MarR-like regulator YvmB, renamed PchR) (natural protein)
- stoichiometry N [1]: 2

Molecule: P-yisI probe
- Kd [2]: 2.5 nM

B1: P1 probe (yvmB-yvmC intergenic, palindrome I) (dsDNA)
DNA 1: TTCCAAATGTTTTTTAAGATTTTAATAATCATTTTCAATACCCATATCATGATAAATGTTTACTAGTAAACATTAGTCATTTTATCCCTTTTCCTTCCAAACGTCAATAT
DNA 2: ATATTGACGTTTGGAAGGAAAAGGGATAAAATGACTAATGTTTACTAGTAAACATTTATCATGATATGGGTATTGAAAATGATTATTAAAATCTTAAAAAACATTTGGAA
- Kd (YvmB-His6 (PchR) [3]): 5 nM

B2: P2 probe (yvmB-yvmC intergenic, palindrome II) (dsDNA)
DNA 1: CCAACAATTGACAACGAAAACAAGAAAAGATAAAATAAAATTGTTCACCAGTAAACGATTTGTTTTATTGTTTCATCGTAAACTATTATTCCTAAGAAAGAAGGTAGCCT
DNA 2: AGGCTACCTTCTTTCTTAGGAATAATAGTTTACGATGAAACAATAAAACAAATCGTTTACTGGTGAACAATTTTATTTTATCTTTTCTTGTTTTCGTTGTCAATTGTTGG
- binding result (YvmB-His6 (PchR) [4]): binds
